Source: the DeepSol protein solubility set

Experiment: soluble on expression in E. coli; label from the status in PepcDB or PDB records

Row | Sequence | soluble on expression in E. coli
1 | SLRRWDQGLEKPRLDYSEFFTEDVGQLPGLTIWQIENFVPVLVEEAFHGKFYEADCYIVLKTFLDDSGSLNWEIYYWIGGEATLDKKACSAIHAVNLRNYLGAECRTVREEMGDESEEFLQVFDNDISYIEGGTASGFYTVEDTHYVTRMYRVYGKKNIKLEPVPLKGSSLDPRFVFLLDQGLDIYVWRGAQATLSNTTKARLFAEKINKNERKGKAEITLLVQGQEPPGFWDVLGGEPSEIKNHVPDDFWPPQPKLYKVGLGLGYLELPQINYKLSVEHKKRPKVELMPGMRLLQSLLDTRCVYILDCWSDVFIWLGRKSPRLVRAAALKLGQELCGMLHRPRHTVVSRSLEGTEAQVFKAKFKNWDDVLTVDYTRNAEAVLQGQGLSGKVKRDTEKTDQMKADLTALFLPRQPPMPLAEAEQLMEEWNEDLDGMEGFVLEGRKFTRLPEEEFGHFYTQDCYVFLCRYWVPVEYEEEEKTEDKEGKASAEAREGEEAAAEAEEKQPEEDFQCIVYFWQGREASNMGWLTFTFSLQKKFESLFPGKLEVVRMTQQQENPKFLSHFKRKFIIHRGKRKVTQGTLQPTLYQIRTNGSALCTRCIQINTDSSLLNSEFCFILKVPFESEDNQGIVYAWVGRASDPDEAKLAEDILNTMFDASYSKQVINEGEEPENFFWVGIGAQKPYDDDAEYMKHTRLFRCSNEKGYFAVTEKCSDFCQDDLADDDIMLLDNGQEVYMWVGTQTSQVEIKLSLKACQVYIQHTRSKEHERPRRLRLVRKGNEQRAFTRCFHAWSTFRQAPA | not soluble
2 | MTAFLPPNLLALFEARPPVQYLPPCQDLLVDKNAKRAPMTGVAQYIQLFEDPKDTPAKIPVVTKAEAKEEKRRQKDELLAYKVEQGIATWNPAENPRASEDPYRTLFVGRINYETSESKLRREFEAYGKIKKLTMVHDEAGKPRGYAFIEYSDKAEMHTAYKKADGIKVDGKRLVVDYERGRTQKTWLPRRLGGGKGDTRKTREAKSVIEEREIASGFGGGYEDRDRERSGSRDRRQDSYRNGGGNDRDRRESSGGFRDNRGGGGGFGGGGRDRFNDRSGGGGYGGDRDRGGDRGGDRGGSRYSTGGGSGGGYRSGGGSSGGGGGGRYGDRR | not soluble
3 | MLRLARKGLQTAVVRSYAKDVKFGAEGRQAMLVGVNLLADAVSVTMGPKGRNVIIEQSWGSPKITKDGVTVAKSIDLKDKYQNLGAKLIQDVANKANEEAGDGTTCATVLARAIAKEGFESIRQGGNAVEIRRGVMNAVEVVVAELKKISKKVTTPEEIAQVATISANGDTVVGNLISDAMKKVGTTGVITVKDGKTLNDELELIEGMKFDRGYISPYFITSAKGAKVEYEKALVLLSEKKISQVQDIVPALELANKLRRPLVIIAEDVDGEALTTLVLNRLKVGLQVVAIKAPGFGDNRKNTLKDMGIATGATIFGDDSNLIKIEDITANDLGEVDEVTITKDDTLLLRGRGDQTEIEKRIEHITDEIEQSTSDYEKEKLNERLAKLSKGVAVLKIGGGSEVEVGEKKDRVTDALCATRAAVEEGIVPGGGVALLRSLTALKNYKAANEDQQIGVNIVKKALTQPIATIVKNAGLEPSSIIDEVTGNSNTSYGYDALNGKFVDMFEAGIIDPTKVVRTALQDASGVASLLATTECVVTEIPKEEAVGGPAGGMGGMGGMGGMGGMGF | not soluble
4 | MGSDKIHHHHHHMKKLLNTLYLTQEDFYVTKEGDNIVIKQEGKVLKRFPFRIIDGIVCFSYLGVSSALVKLCTENQINLSFHTPQGRFCGRYIGSTNGNVLLRREHYRLSDREESLEYAKRFILAKISNSRKYLLRFKRDHRQQIDTKLFEAVNDELIWALEMVQAADNKDSLRGIEGQAANQYFRIFNDLVLTDKKTFYFQGRSKRPPLDCVNALLSFGYSLLTFECQSALEAVGLDSYVGFFHTDRPGRASLALDLVEEFRSYIVDRFVFSLINKGQLQKKHFEVKENGSILLTENGRAIFIDLWQKRKHTEVEHPFTKEKVKLMLLPYVQAQLLAKAIRGDLESYPPFMV | not soluble
5 | MRPSGRMENKKQSKGASRGSRRRSINTSNSNTSARHAFSPCSYSSSGTEIRKVAISVSSNSTTELPCAQSPNVGSRTSDSHQLTLGSDLRSEPNNLNIAATLAEPNIAEHFKGVLTKKEAANLTRRDDFTMYYRVVKDQAKVELETTIPLFICYRNSENKVFSFRVEQVLTENNSMWWTVMINKQHTQMFRRLLDLVRCYHSYRFINPETRSQEMFPIWKYTNQASMNP | not soluble
6 | MSNYTVKIKNSAKSDLKKIKHSYLKKSFLEIVETLKNDPYKITQSFEKLEPKYLERYSRRINHQHRVVYTVDDRNKEVLILSAWSHYD | not soluble
7 | SALAVEADPAADRVSSLSNVSGVLGSQWGDEGKGKLVDVLAPRFDIVARCQGGANAGHTIYNSEGKKFALHLVPSGILHEGTLCVVGNGAVIHVPGFFGEIDGLQSNGVSCDGRILVSDRAHLLFDLHQTVDGLREAELANSFIGTTKRGIGPCYSSKVTRNGLRVCDLRHMDTFGDKLDVLFEDAAARFEGFKYSKGMLKEEVERYKKFAERLEPFIADTVHVLNESIRQKKKILVEGGQATMLDIDFGTYPFVTSSSPSAGGICTGLGIAPRVIGDLIGVVKAYTTRVGSGPFPTELLGEEGDVLRKAGMEFGTTTGRPRRCGWLDIVALKYCCDINGFSSLNLTKLDVLSGLPEIKLGVSYNQMDGEKLQSFPGDLDTLEQVQVNYEVLPGWDSDISSVRSYSELPQAARRYVERIEELAGVPVHYIGVGPGRDALIYK | soluble
8 | MAHHHHHHMAKAIGDGDTGDAWWANPEHLAAIDATAAAEAVVSVPHQPEKNTGTGCSSRITAMRYYMKPDTWTQTLLSDEGETARENRTDGEVPHSGSASTGAVTSSDPRGCNSDAHVHHQATSSLLSTASSVVTTTATEEASSLPAASSPLHGLPLHQLIEQHAALVRRLVQVLAPQRQTIPHVIRELCTTRVTSPSSAVASRVCVLPSMDASNAEPMQYTERDVAAAVEQLTSSHPRQPRLRELKSDGYLLMNLEGFADGKTRHKAVNRAYPALALHWPASVQQMDAMERYVDRDVVLDTRKRHPELSGEGSDKKQGQKRDRSRSSTSSNASGADEDGAHKARAPGYTSSPPSPPLGMAASPKRTAPTTSSRRFFQSLREYPRSLEHGDLHAWARGTAAQQARDCLQAATTLTQSSTSTVDGSSDAATLGPLPITNEEDVAVLRCQYDALAAAESVVEKQLRAYSDTVQELRGWYRGELCTQQFRYELEAWLRTQEESRAVLTDLYAQMHAMRYSLQRDLSNYLHLHALGVL | soluble
9 | MSLSENTTKVVQLNSHLTAPGQVTDELQSLTRMPAAFVETKDKGKQALRPLLQALFDNIDDALFELADRAEHNAEQNMFFESMREVRIKRRGMELCFGQELDNRFRLLLTDDAPRAKSSADDPRLAVDSLSLIANEELEELVAADTMIIKAEGEFTDSLSQLTTRIDTLVHPLEVTDKTNPFGPTSVCQSFVGVCKTLDMDIRAKLVLFKLFDRYVMNGLGDVYAACNEVLVNNGILPGLAKGRTTAARADSNIQQPPAASGTVDVFAQLQTLLHGLPQHTAGIETSGLVAVGQAPQIPRDTLMTLLQSVQLSLAPQLDQQLQAALQGVGPQQLDIQQSLSNLLSAKLPSKPMSIGQVESDALNLVAMLFQFILDDRNLAAPMKALIARLQIPFIKAAMIDSSFFTKGGHPARRLLNEIASASLGWVAIGIVDRDPLYAKVSSIVTRIQREFDGDSRLFQDVLTDFVAFLDMDKRRIGLVEQRTINAEDGKAKSEQARTAVQTALNERVAGLSLPKVVISLLEQAWSNVLFLIYLKEGDQAENWQEGLNVVDDLLWSVQPMDSADSRHRLVTMVPPLLKNVRAGLTKIGYNPFEMNQLFTDLEVVHLSQLQALNTVKLDMTASEGHHHHHH | not soluble
10 | MAKWGEGDPRWIVEERADATNVNNWHWTERDASNWSTEKLKTLFLAVRVENEEGKCEVTEVNKLDGEASINNRKGKLIFFYEWTIKLNWTGTSKSGVQYKGHVEIPNLSDENSVDEVEISVSLAKDEPDTNLVALMKEDGVKLLREAVGIYISTLKTEFTQGMILPTVNGESVDPVGQPALKTETCKAKSAPSKSQAKPVGVKIPTCKITLKETFLTSPEELYRVFTTQELVQAFTHAPAALEADRGGKFHMVDGNVTGEFTDLVPEKHIAMKWRFKSWPEGHFATITLTFIDKNGETELCMEGRGIPAPEEERTRQGWQRYYFEGIKQTFGYGARLF | soluble
11 | MDALVSTKANSIAYQRSTVIIPAYNEEKRLMPVLYELCEYIRSNSLEWKVMVSIDGDDGTESNVKIMMQEYSFLSYSKGKGRGGKGAAIKRAITSATGEFVILMDADGSVPLKEIVKALDLTNYYDLIIFDRYSNRGNRIPFIRRFPSRGFNKLVRIFLGLKINDTQCGYKIIKREYAQRAFNKITISNAFFDVALLYYLKKERAKYIEIPVEYNYDRNSKFHVVELVLGEGISLIAFRIRNSRFYKYVPEKLISLYYRKFRWILEHHHHHH | soluble
12 | MSVARHTQILPSVLDRLLDDEPDQSHIESISLFELPQFKRALARDLEALLNTRLMPLDELMESFPQARDSLLTFGIPDLSGISLLNPDDRELLREQLRRSIELHEPRLSRVRVNLDAPREMERHLRFRVDAVLKVHPHRPPVTFDATLQLSSNVYKVQG | not soluble
13 | MGSDKIHHHHHHMQPTIDQKKNPAIGNQRVTKRRKTIAQGLIQEGIELEIIQSWLFAIAQMWEVGHIPPILRGISHKSQVEALFRISQIGETIQKVHEKLAGEYYQDWVKSLNRAGLHTPSEIISAITEIQQVVKPEAIDTTKQLLNKLELEIIGMKDGDFFPTPKPLCQRLVQLADIKPNWQILEPSAGSGNIAEYITNTYPNVQLEVVEINYDLRQILELKGFNLVGKNFLEFNPSHLYNACIMNPPFCELVQHIYQAWKLLITGGVLVSVIPESVFFNRKYKTFKNWLLANNSYVEMVDKDAFLSSNNPTNVATRIIKLIKP | not soluble
14 | MKQPKVSVIVTCYNYATYLEGCLASILNQTYQDFELVIINDGSTDNTDEVISRFLDNDKVRYINQKNTGQAIATNNGIAAAAGELIAFLDADDLWEPTKLEKQVRLFNRDSIGVVYSRIRFMDAEGCTLDMQLEGKYYTPRSGRVTDALLFENFIPYSSTVVRKECFDKFGMFNPEYKNGLDWDLWLRISREYEFDFVDEYLLIYRIGHPGQLTSNVERSVRCADLIFDRFLEENPGIVPDSVVRKAMAYSYCRRGNQFRKIDRKRSNGFFLNALAKNPAEIGAYVGLVKNFLNMLEHHHHHH | not soluble
15 | MYLINQNGWIEVICGSMFSGKSEELIRRVRRTQFAKQHAIVFKPCIDNRYSEEDVVSHNGLKVKAVPVSASKDIFEHITEELDVIAIDEVQFFDGDIVEVVQVLANRGYRVIVAGLDQDFRGLPFGQVPQLMAIAEHVTKLQAVCSVCGSPASRTQRLIDGEPAAFDDPIILVGASESYEPRCRHCHAVPANKDK | not soluble
16 | MSLDMKTTHTSLPFAGHTLHFVEFDPASFREQDLLWLPHYAQLQHAGRKRKTEHLAGRIAAIYALREYGYKCVPAIGELRQPVWPAGVYGSISHCGTTALAVVSRQPIGIDIEEIFSAQTARELTDNIITPAEHKRLADCGLAFPLALTLAFSAKESAFKASEIQTDADFLDYQIISRNKQQVIIHRENEMFAVHWQIKEKIVITLCQHDEGHHHHHH | soluble
17 | MAHHHHHHMKPKMRRESAQPCLTCMPAILNKSVCPIHKIYSDNTLLLFMVIDCYNKMCSKKISTRNANDYKKLWNDNKLLICYSHGVLFHMHTRTSKTCFPQNYFSSNNDNCECGVHQVRFKTLKAQVHIIIPAILTGTTIV | not soluble
18 | MAQNNENALPDITKSITLEAPIQKVWETVSTSEGIAKWFMPNDFQLKEGQEFHLQSPFGPSPCKVLAVQAPTELSFEWDTEGWVVTFQLEDLGEKTGFTLIHSGWKEPNEVIGKANEKSSVVRGKMDGGWTGIVNERLRKAVEELEHHHHHH | soluble
